Reference: PMC4029271, “Oligomer-targeting with a conformational antibody fragment promotes toxicity in Aβ-expressing flies” (Acta Neuropathologica Communications, 2014)

How the values were obtained:
Aβ(1–40) oligomers = target: T1, Aβ(1–40) oligomers (Homo sapiens, UniProt P05067); test: far-Western, overlay or dot blot; spot blot: 1–20 μg of each Aβ species (oligomers/intermediates or fibrils) on nitrocellulose, blocked with 2% BSA in TBST; 4 μg/ml B10AP or KW1AP in TBST for 1 h, room temperature; NBT/BCIP; densitometry; settings: both partners purified
T1 construct: β-amyloid peptide Aβ(1–40), the 40 amino acid isoform, cut product of the amyloid precursor protein; numbers count on: the Aβ peptide; Oligomeric assembly state; also called Aβ(1–40) intermediates; Aβ(1-40)-derived oligomers; source: oligomers prepared in 100% HFIP, diluted 10-fold with water, supernatant after 14,000 x g

[1] = target: T2, Aβ(1–40) expressed in Drosophila (KW1;Aβ40 flies) (Homo sapiens (expressed in Drosophila), UniProt P05067); test: co-IP; head homogenates of 20-day old KW1;Aβ40 flies incubated with blocked protein A magnetic beads without antibody (fly KW1 binds the beads directly); PBS + 0.025% TritonX-100, room temperature; elution with 50 mM glycine pH 2.8; WB with 6E10 (Aβ) and anti-myc (KW1); settings: partners not purified
T2 construct: β-amyloid peptide Aβ(1–40); numbers count on: the Aβ peptide; Assembly state of the peptide in the fly homogenate is not defined; source: transgenic Drosophila melanogaster (Gal4-elav c155 driver, neuronal), in head homogenate of 20-day old flies

Aβ(1–40) fibrils = target: T3, Aβ(1–40) fibrils (Homo sapiens, UniProt P05067); test: far-Western, overlay or dot blot; spot blot: 1–20 μg of each Aβ species (oligomers/intermediates or fibrils) on nitrocellulose, blocked with 2% BSA in TBST; 4 μg/ml B10AP or KW1AP in TBST for 1 h, room temperature; NBT/BCIP; densitometry; settings: both partners purified
T3 construct: β-amyloid peptide Aβ(1–40), the 40 amino acid isoform, cut product of the amyloid precursor protein; numbers count on: the Aβ peptide; Fibrillar assembly state; also called Aβ(1–40) amyloid fibrils; source: fibrils formed at 1 mg/ml in 50 mM sodium borate, pH 9.0, 5 days, room temperature

Aβ(1–42) fibrils = target: T4, Aβ(1–42) fibrils (Homo sapiens, UniProt P05067); test: as above; settings: both partners purified
T4 construct: β-amyloid peptide Aβ(1–42), the 42 amino acid isoform, cut product of the amyloid precursor protein; numbers count on: the Aβ peptide; Fibrillar assembly state; also called Aβ(1–42) amyloid fibrils; source: synthetic peptide (Dr. Sven Rothemund, University Leipzig); fibrils formed at 1 mg/ml in 50 mM sodium borate, pH 9.0, 5 days, room temperature

B1: KW1AP (alkaline phosphatase coupled KW1 antibody fragment) (VHH)
VHH: EVQLVESGGGSVQPGGSLRLSCTASGYTFSQEFVIWFRQAPGKEREIVSGISLRKGWTYYADSVKGRFTISQDNAKNTVYLQMNNLKPEDTAMYYCAAAPTATHALYFDYWGQGTQVTVSS
notes: KW1, phage display selected from a fully synthetic library of camelid heavy chain antibody fragments; crystal structure of KW1 is PDB 3TPK; The introduction speaks of bivalent KW1 in earlier work; also called AP coupled KW1
Question: Does B1 bind (Aβ(1–40) oligomers)?
Answer: Result: binds

B2: fly KW1 (myc-tagged KW1 antibody fragment expressed in Drosophila neurons) (VHH)
VHH: EVQLVESGGGSVQPGGSLRLSCTASGYTFSQEFVIWFRQAPGKEREIVSGISLRKGWTYYADSVKGRFTISQDNAKNTVYLQMNNLKPEDTAMYYCAAAPTATHALYFDYWGQGTQVTVSS
notes: KW1 as in m1; crystal structure PDB 3TPK; Expressed with an N-terminal secretion signal peptide (SSP) from the Drosophila necrotic gene; Band at ~17 kDa on anti-myc Western blot; source: transgenic Drosophila melanogaster (Gal4-elav c155 driver, neuronal), in head homogenate; not shown: myc, C-terminal, kept
Question: Does B2 bind [1]?
Answer: Result: binds

B3: B10AP (alkaline phosphatase coupled B10 antibody fragment) (VHH)
VHH: EVQLVESGGGLVQPGGSLRLSCTASGYTFSHRYHRWFRQAPGKEREIVAVISQSGMRTYYADSVKGRFTISRDNAKNTVYLQMNSLKPEDTAMYYCAAGTRKNVWTRQHPFDYWGQGTQVTVSS
notes: B10, phage display selected from a fully synthetic library of camelid heavy chain antibody fragments; crystal structure of B10 is PDB 3LN9; The introduction speaks of bivalent B10 in earlier work; also called AP coupled B10
Question: Does B3 bind (Aβ(1–40) fibrils)?
Answer: Result: binds

Question: Does B3 bind (Aβ(1–42) fibrils)?
Answer: Result: binds
